Measurements as given in publication PMC11437398.

Biological target: rabies virus glycoprotein (G) (rabies virus (strain CVS-27)) (UniProt O92284)
Test: cryo-electron tomography

“rabies virus glycoprotein (G) (from UniProt O92284 20-524) (natural protein)” showed a stoichiometry N of 3.
